Assay results from the supplement of paper PMC7877785.
± gives the uncertainty stated by the source.

Assay: self-splicing fitness, log relative to wild type (ln ratio); higher = more splicing; Tetrahymena group I intron in knt gene, E. coli kanamycin selection, DiMSum; sequences stand for … in CUCUCU…GGAGGGAAAAGUUAUCAGGCAUGCACCUGGUAGCUAGUCUUUAAACCAAUAGAUUGCAUCGGUUUAAAAGGCAAGACCGUCAAAUUGCGGGAAAGGGGUCAACAGCCGUUCAGUACCAAGUCUCAGGGGAAACUUUGAGAUGGCCUUGCAAAGGGUAUGGUAAUAAGCUGACGGACAUGGUCCUAACCACGCAGCCAAGUCCUAAGUCAACAGAUCUUCUGUUGAUAUGGAUGCAGUUCACAGACUAAAUGUCGGUCGGGGAAGAUGUAUUCUUCUCAUAAGAUAUAGUCGGACCUCUCCUUAAUGGGAGCUAGCGGAUGAAGUGAUGCAACACUGGAGCCGCUGGGAACUAAUUUGUAUGCGAAAGUAUAUUGAUUAGUUUUGGAGUACUCGUGGUCG
How it was run: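 Pooled colonies went to amplicon sequencing on an Illumina HiSeq 2500 after six replicate transformations. The plates were LB agar with 100 μg/mL carbenicillin, 50 μM IPTG and 0.2% rhamnose, with or without 25 μg/mL kanamycin, incubated overnight at 37°C or 30°C. The E. coli BL21(DE3) library had all eight P1ex-region intron nucleotides randomised, the intron placed in the knt kanamycin-resistance gene on pET-22b(+). DiMSum fitness is the error-weighted combination of replicate fold changes, kanamycin against none, normalised to wild type.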

Row | Sequence | self-splicing fitness (ln) (30 °C) | self-splicing fitness (ln) (37 °C)
1 | GUUAAGCAAUAUUACGAAGU | -2.06 ± 0.18 | -1.45 ± 0.23
2 | GUGAAGCAAUAUUACGCUUA | -1.49 ± 0.087 | -0.459 ± 0.13
3 | AACGAGCAAUAUUACGCUUA | -2.86 ± 0.26 | -1.31 ± 0.2
4 | CUUUAGCAAUAUUACGGUUG | -0.918 ± 0.083 | -0.666 ± 0.099
5 | AUUUAGCAAUAUUACGGCGU | -0.211 ± 0.11 | 0.269 ± 0.13
6 | UGUAAGCAAUAUUACGGUAA | -1.8 ± 0.2 | -0.586 ± 0.12
7 | AACAAGCAAUAUUACGUCAC | -3.77 ± 0.22 | -2.29 ± 0.23
8 | AAAAAGCAAUAUUACGGGUA | -1.61 ± 0.11 | -0.435 ± 0.11
9 | CGUGAGCAAUAUUACGAAUU | – | -0.866 ± 0.17
10 | UCCGAGCAAUAUUACGAUCA | – | -1.26 ± 0.25
11 | AUCCAGCAAUAUUACGCAUU | -1.37 ± 0.064 | -0.265 ± 0.082
12 | AAUAAGCAAUAUUACGGACA | -0.911 ± 0.13 | 0.0108 ± 0.14
13 | CGGGAGCAAUAUUACGUAUC | -2.58 ± 0.49 | –
14 | UCUAAGCAAUAUUACGCUAA | -3.04 ± 0.19 | -1.84 ± 0.18
15 | GUGCAGCAAUAUUACGAUGG | -3.54 ± 0.37 | -3.15 ± 0.47
16 | GCGGAGCAAUAUUACGCGAA | – | -0.648 ± 0.23
17 | GGCUAGCAAUAUUACGCCAA | -2 ± 0.11 | -0.903 ± 0.16
18 | CCCUAGCAAUAUUACGCCCC | -3.88 ± 0.37 | -3.05 ± 0.47
19 | AAUAAGCAAUAUUACGGUCC | -1.47 ± 0.14 | -0.63 ± 0.22
20 | AAGAAGCAAUAUUACGCCCC | -0.875 ± 0.12 | -0.358 ± 0.17
21 | UUCAAGCAAUAUUACGGUCA | -0.929 ± 0.097 | 0.00589 ± 0.098
22 | UUAAAGCAAUAUUACGCAGU | -3.1 ± 0.28 | -1.36 ± 0.18
23 | UGCCAGCAAUAUUACGACAA | -1.19 ± 0.17 | 0.212 ± 0.13
24 | CGCAAGCAAUAUUACGGGGA | -3.1 ± 0.2 | -2.69 ± 0.23
25 | UCCAAGCAAUAUUACGAAAC | -3.13 ± 0.22 | -2.95 ± 0.35

Row | Sequence | self-splicing fitness (ln) (30 °C) | self-splicing fitness (ln) (37 °C)
26 | CAGUAGCAAUAUUACGAACA | -3.3 ± 0.48 | -2.86 ± 0.41
27 | CGACAGCAAUAUUACGCGAG | -1.5 ± 0.16 | -2.32 ± 0.21
28 | CGAGAGCAAUAUUACGCUGA | -2.91 ± 0.44 | -0.634 ± 0.27
29 | GGGGAGCAAUAUUACGAGGG | -2.13 ± 0.19 | –
30 | UAACAGCAAUAUUACGACGA | 0.245 ± 0.069 | 0.319 ± 0.083
31 | GUAAAGCAAUAUUACGAUUA | 0.307 ± 0.087 | 0.518 ± 0.1
32 | CUCGAGCAAUAUUACGGGCG | -2.65 ± 0.17 | -2.1 ± 0.25
33 | CCCAAGCAAUAUUACGCAGC | -3.93 ± 0.29 | -3.49 ± 0.34
34 | GUUCAGCAAUAUUACGCGCC | -1.96 ± 0.31 | -1.43 ± 0.34
35 | GUCCAGCAAUAUUACGUUCA | -0.971 ± 0.088 | 0.797 ± 0.087
36 | GUCGAGCAAUAUUACGGCGA | -3.05 ± 0.21 | -1.9 ± 0.25
37 | UUGCAGCAAUAUUACGUGAC | -1.55 ± 0.11 | -0.799 ± 0.13
38 | ACCGAGCAAUAUUACGAAAA | -3.51 ± 0.3 | -2.81 ± 0.24
39 | GAGGAGCAAUAUUACGAAGC | -1.73 ± 0.32 | -2.22 ± 0.4
40 | GCGGAGCAAUAUUACGUUUU | -3.29 ± 0.21 | -2.02 ± 0.21
41 | UUACAGCAAUAUUACGUCUU | -1.49 ± 0.069 | -0.819 ± 0.09
42 | GUCGAGCAAUAUUACGAGCC | -3.81 ± 0.47 | –
43 | CACUAGCAAUAUUACGCGAG | -2.13 ± 0.26 | -1.79 ± 0.17
44 | CAGGAGCAAUAUUACGUCCG | 0.726 ± 0.21 | 0.304 ± 0.29
45 | GUUUAGCAAUAUUACGGUAC | -1.22 ± 0.12 | -2.01 ± 0.15
46 | AUACAGCAAUAUUACGCAAG | -2.28 ± 0.12 | -1.49 ± 0.13
47 | GGUAAGCAAUAUUACGCGAU | -2.17 ± 0.3 | –
48 | GGAAAGCAAUAUUACGAGGU | -3.65 ± 0.17 | -2.87 ± 0.25
49 | AAUUAGCAAUAUUACGGGAG | -2.99 ± 0.19 | -2.17 ± 0.16
50 | CGCAAGCAAUAUUACGGCCU | -2.59 ± 0.14 | -0.135 ± 0.13

Row | Sequence | self-splicing fitness (ln) (30 °C) | self-splicing fitness (ln) (37 °C)
51 | CUGGAGCAAUAUUACGUCGC | -2.03 ± 0.46 | -2.57 ± 0.48
52 | GUAUAGCAAUAUUACGGCGC | -0.053 ± 0.11 | -0.157 ± 0.12
53 | ACACAGCAAUAUUACGCCAC | -3.38 ± 0.33 | -2.66 ± 0.31
54 | CGUAAGCAAUAUUACGGCAC | -3.68 ± 0.29 | -0.595 ± 0.22
55 | UUCCAGCAAUAUUACGCCAU | -3.3 ± 0.19 | -2.82 ± 0.25
56 | GAGUAGCAAUAUUACGUUGC | -3.27 ± 0.23 | -1.79 ± 0.27
57 | AUGCAGCAAUAUUACGUUAA | -2.58 ± 0.1 | -1.71 ± 0.094
58 | AAUGAGCAAUAUUACGUAUC | -3.14 ± 0.21 | -1.14 ± 0.17
59 | CAGGAGCAAUAUUACGGGUU | -4.36 ± 0.25 | -2.99 ± 0.19
60 | AGCAAGCAAUAUUACGCAGC | -2.98 ± 0.27 | -2.1 ± 0.35
61 | ACCAAGCAAUAUUACGCCUU | -2.87 ± 0.15 | -1.97 ± 0.15
62 | UGGGAGCAAUAUUACGUGGA | -2.94 ± 0.44 | -2.11 ± 0.2
63 | UUAGAGCAAUAUUACGCGGG | -1.91 ± 0.13 | -0.56 ± 0.13
64 | CCCCAGCAAUAUUACGACUU | -3.29 ± 0.13 | -3 ± 0.22
65 | AGGAAGCAAUAUUACGGACG | -0.899 ± 0.13 | 0.276 ± 0.14
66 | ACUAAGCAAUAUUACGCUAU | -1.88 ± 0.072 | -1.84 ± 0.1
67 | UUUUAGCAAUAUUACGAUUU | -1.67 ± 0.16 | -0.611 ± 0.21
68 | GCUGAGCAAUAUUACGUGGU | -3.63 ± 0.32 | -2.22 ± 0.4
69 | UGUGAGCAAUAUUACGGCAC | -3.21 ± 0.23 | -2.21 ± 0.23
70 | CGUCAGCAAUAUUACGUGCU | -3.04 ± 0.26 | -2.39 ± 0.27
71 | CAAAAGCAAUAUUACGCAAA | -2.48 ± 0.14 | -1.76 ± 0.17
72 | AGGAAGCAAUAUUACGACUA | 0.0184 ± 0.094 | -0.351 ± 0.12
73 | CUCGAGCAAUAUUACGCCCG | – | -2.74 ± 0.43
74 | UGGAAGCAAUAUUACGCUUU | -3.64 ± 0.23 | -2.64 ± 0.28
75 | AAGCAGCAAUAUUACGACCC | -1.78 ± 0.14 | -0.112 ± 0.15

Row | Sequence | self-splicing fitness (ln) (30 °C) | self-splicing fitness (ln) (37 °C)
76 | CGACAGCAAUAUUACGACUA | -2.15 ± 0.13 | 0.027 ± 0.092
77 | UGAAAGCAAUAUUACGUUGU | -4.1 ± 0.22 | -2.04 ± 0.12
78 | AGCUAGCAAUAUUACGAUAC | -3.44 ± 0.49 | -1.59 ± 0.28
79 | GGCGAGCAAUAUUACGAAGA | – | -1.49 ± 0.47
80 | CAGCAGCAAUAUUACGAGUC | -4.41 ± 0.29 | -2.24 ± 0.14
81 | AGAUAGCAAUAUUACGGUAA | -1.79 ± 0.2 | -1.34 ± 0.19
82 | GCACAGCAAUAUUACGUCGG | -1.72 ± 0.1 | -1.09 ± 0.13
83 | AAAGAGCAAUAUUACGAGUG | -3.95 ± 0.19 | -2.38 ± 0.16
84 | GGGUAGCAAUAUUACGGGAG | -2.54 ± 0.28 | -1.44 ± 0.25
85 | AAGAAGCAAUAUUACGAAAG | -3.5 ± 0.21 | -1.69 ± 0.13
86 | GGUCAGCAAUAUUACGCAUA | -0.703 ± 0.088 | -0.214 ± 0.11
87 | GCCGAGCAAUAUUACGGCCA | -1.6 ± 0.11 | -1.52 ± 0.12
88 | AAUCAGCAAUAUUACGUCAA | -0.952 ± 0.077 | -0.614 ± 0.1
89 | CAAAAGCAAUAUUACGCAUG | -3.93 ± 0.19 | -0.824 ± 0.15
90 | AGAUAGCAAUAUUACGGCCA | 0.117 ± 0.33 | -0.323 ± 0.26
91 | GAGCAGCAAUAUUACGAAUU | -1.95 ± 0.14 | -1.45 ± 0.15
92 | UGGCAGCAAUAUUACGGACU | -0.554 ± 0.066 | 0.386 ± 0.082
93 | UAGUAGCAAUAUUACGGAGG | – | -1.43 ± 0.44
94 | AUUGAGCAAUAUUACGAAAC | -2.48 ± 0.45 | –
95 | GAAGAGCAAUAUUACGGGUG | -3.28 ± 0.15 | -2.01 ± 0.17
96 | AUGCAGCAAUAUUACGAAGA | -1.8 ± 0.18 | -2.36 ± 0.27
97 | CAGUAGCAAUAUUACGCAGG | -1.59 ± 0.096 | -0.318 ± 0.11
98 | GGAAAGCAAUAUUACGGCUG | -0.471 ± 0.12 | -0.348 ± 0.17
